Experimental data taken from patent publication US20250243269A1 (ICAHN SCHOOL OF MEDICINE AT MOUNT SINAI, published 2025).

Molecular target: T1, human FSH (follicle stimulating hormone) (human, UniProt P01215 25-116; P01225 19-129)
T1 construct: also called purified human FSH; human FSH in PDB ID 4AY9
Experiment: thermal shift assay (Sypro-Orange), antibody 1.5 µg/µL with or without human FSH 0.5 µg/µL
Protocol: Next, 215 different anti-FSH antibody formulations comprising different combinations of salt, detergent and sugars were tested for thermal stability. The thermal shift assay used a fluorescent reporter, Sypro-Orange (Protein Thermal Shift Dye Kit, ThermoFisher, Catalog #4461146), to detect hydrophobic domains that are exposed following the heat-induced unfolding of globular proteins. anti-FSH antibodies (1.5 μg/μL), either in a test formulation or in PBS, were incubated with or without human FSH (0.5 μg/μL) at room temperature for 30 minutes, with fluorescence captured sequentially at 0.3° C. increments using a StepOne Plus Thermocycler (Applied Biosystems). Tm was calculated based on the inflection point of the melt curve, and thermal shift was derived from ΔTₘ=TₘA−TₘB.
This testing yielded an anti-FSH antibody formulation comprising a stock solution of 2 mg/mL in 20 mM phosphate, 0.001% (v/v) Tween-20, 1 mM NaCl, and 260 mM sucrose (pH=6.58). […] The binding of formulated anti-FSH antibodies to purified human FSH was tested. A ΔTₘ of 3.1° C. of the Fab, and not the Fc region, established greater thermal stability due to FSH binding (FIG. 8C).

T1 sequence (P01215 25-116, chain 1 of 2): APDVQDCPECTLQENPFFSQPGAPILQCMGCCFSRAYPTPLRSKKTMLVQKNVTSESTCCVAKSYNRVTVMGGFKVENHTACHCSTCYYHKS
T1 sequence (P01225 19-129, chain 2 of 2): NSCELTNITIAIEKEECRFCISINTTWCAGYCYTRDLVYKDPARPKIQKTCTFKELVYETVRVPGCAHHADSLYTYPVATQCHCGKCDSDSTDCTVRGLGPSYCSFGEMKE

B1: humanized monoclonal anti-FSH antibody Hu6 (antibody, V domains shown)
VH: QVQLQESGPGLVKPSQTLSLTCTVSGFSITSDYAWNWIRQPPGKGLEWIGSIFSSGSINYNPSLKSRVTISRDTSKNQFSLKLSSVTAADTAVYYCARGGTGTDYWGQGTLVTVSS
VL: DIQMTQSPSSLSASVGDRVTITCRASQDISNYLSWYQQKPGKAIKLLIYYTSRLHSGVPSRFSGSGSGTDYTLTISSLQPEDFATYFCQQGHTLPPTFGGGTKVEIK
notes: also called MS-Hu6; formulated anti-FSH antibodies
ΔTm of the Fab region on FSH binding: 3.1 °C
